# Assay results from the supplement of paper PMC10598134.
# ± gives the standard deviation.
# Assay: collision cross section of modified peptide (TIMS, N2, iRT-aligned); higher = larger / more extended gas-phase ion
# Procedure, shortened: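 Collision cross section was derived from the Mason-Schamp equation. Each value averages 1–3 technical replicates of the most abundant feature per charge state, measured on a timsTOF Pro/HT in dda-PASEF mode (nitrogen, ~2.4 mbar) after a 120-min nanoflow C18 gradient at 60 °C. Synthetic peptide pools (~100 fmol/µL in 2% acetonitrile/0.1% formic acid, iRT standard spiked 1:40) were identified with MaxQuant, and 1/K0 was calibrated with three reference ions and aligned run-wise to the median iRT peptide deviation.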
# [1] = charge state: 2, modification: GlyGly (K)
# [2] = charge state: 3, modification: GlyGly (K)
# [3] = charge state: 2, modification: hydroxyisobutyryl
# [4] = charge state: 2, modification: Phospho (Y)
# [5] = charge state: 2, modification: Hydroxyproline
# [6] = charge state: 2, modification: Malonyl
# [7] = charge state: 3, modification: Malonyl
# [8] = charge state: 2, modification: Methyl (K)
# [9] = charge state: 3, modification: Methyl (K)
# [10] = charge state: 2, modification: Dimethyl (K)
# [11] = charge state: 3, modification: Dimethyl (K)
# [12] = charge state: 2, modification: Succinyl
# [13] = charge state: 3, modification: Formyl
# [14] = charge state: 3, modification: Methyl (R)
# [15] = charge state: 2, modification: Nitro (Y)
# [16] = charge state: 2, modification: HexNAc (ST)
# [17] = charge state: 2, modification: Acetyl (K)
# [18] = charge state: 3, modification: Acetyl (K)
# [19] = charge state: 2, modification: Formyl
# [20] = charge state: 2, modification: Trimethyl (K)
# [21] = charge state: 3, modification: Trimethyl (K)
# [22] = charge state: 2, modification: Citrullination (R)
# [23] = charge state: 3, modification: Citrullination (R)
# [24] = charge state: 2, modification: Methyl (R)
substance,measurement,setting,value
LLIVSTTPYSEKDTK [_LLIVSTTPYSEK(Propionyl)DTK_],collision cross section,"charge state: 2, modification: Propionyl",452.01 Å²
VGVEVPDVNIEGPEGKLK [_VGVEVPDVNIEGPEGK(GlyGly (K))LK_],collision cross section,[1],464.33 ± 1.3 Å²
same,collision cross section,[2],509.72 ± 1.9 Å²
IQTKAGEATVK [_IQTK(Gluratylation)AGEATVK_],collision cross section,"charge state: 2, modification: Glutarylation",370.55 ± 0.62 Å²
VDIDAPDVSIEGPDAKLK [_VDIDAPDVSIEGPDAK(hydroxyisobutyryl)LK_],collision cross section,[3],475 ± 0.81 Å²
DLYEPSHGAK [_DLY(Phospho (Y))EPSHGAK_],collision cross section,[4],375.68 ± 0.063 Å²
PGPQPSAETTR [_PGP(Hydroxyproline)QPSAETTR_],collision cross section,[5],345.87 ± 0.25 Å²
LGPPGNPGPSGSPGPKGQK [_LGPPGNPGPSGSP(Hydroxyproline)GPKGQK_],collision cross section,[5],423.7 ± 3 Å²
DLGKFQVATDALK [_DLGK(Malonyl)FQVATDALK_],collision cross section,[6],406.38 ± 0.61 Å²
DHLSDKESK [_DHLSDK(Malonyl)ESK_],collision cross section,[6],349.37 ± 0.029 Å²
same,collision cross section,[7],411.48 Å²
SPPLPEHQKIPCNSAEPK [_SPPLPEHQK(Gluratylation)IPCNSAEPK_],collision cross section,"charge state: 3, modification: Glutarylation",541.53 Å²
VNIGQGSHPQKVK [_VNIGQGSHPQK(GlyGly (K))VK_],collision cross section,[1],422.43 ± 1.1 Å²
same,collision cross section,[2],490.21 ± 0.72 Å²
LQAAYAGDKADDIQK [_LQAAYAGDK(Methyl (K))ADDIQK_],collision cross section,[8],430.05 ± 1.4 Å²
same,collision cross section,[9],477.97 ± 2.6 Å²
DASTLQSQKAEGTGDAK [_DASTLQSQK(Dimethyl (K))AEGTGDAK_],collision cross section,[10],438.33 ± 1.3 Å²
same,collision cross section,[11],482.19 ± 4.5 Å²
PSVSTKLISK [_PSVSTK(Succinyl)LISK_],collision cross section,[12],355.43 ± 0.73 Å²
HELQANCYEEVKDR [_HELQANCYEEVK(Formyl)DR_],collision cross section,[13],490.46 Å²
RFGGPVHHQAQR [_R(Methyl (R))FGGPVHHQAQR_],collision cross section,[14],496.52 ± 2.2 Å²
CYYGSDTAGR [_CY(Nitro (Y))YGSDTAGR_],collision cross section,[15],352.25 ± 0.8 Å²
DHLSDKESK [_DHLSDK(Butyryl)ESK_],collision cross section,"charge state: 2, modification: Butyryl",355.58 ± 0.7 Å²
ETTPSSLAVTQTMATK [_ETTPSSLAVTQT(HexNAc (ST))MATK_],collision cross section,[16],451.07 Å²
LAEEENKAK [_LAEEENK(Crotonyl)AK_],collision cross section,"charge state: 2, modification: Crotonyl",351.41 ± 1.1 Å²
LGNTISSLFGGGTTPDAK [_LGNTISSLFGGGT(HexNAc (ST))TPDAK_],collision cross section,[16],471.52 Å²
DDSFLGKLGGTLAR [_DDSFLGK(Acetyl (K))LGGTLAR_],collision cross section,[17],410.51 ± 1.7 Å²
same,collision cross section,[18],489.73 Å²
IVFSGNLFQHQEDSKK [_IVFSGNLFQHQEDSK(Dimethyl (K))K_],collision cross section,[11],532.16 ± 0.77 Å²
ANLEKAQAELVGTADEATR [_ANLEK(Formyl)AQAELVGTADEATR_],collision cross section,[19],471.04 ± 1.4 Å²
same,collision cross section,[13],566.89 ± 0.82 Å²
LAPEYEAAATR [_LAPEY(Phospho (Y))EAAATR_],collision cross section,[4],374.2 ± 0.063 Å²
IGNSYFKEEK [_IGNSYFK(Malonyl)EEK_],collision cross section,[6],378.34 Å²
VFSIISSEKELK [_VFSIISSEK(Formyl)ELK_],collision cross section,[19],402.55 ± 0.42 Å²
LDEKENLSAK [_LDEK(Methyl (K))ENLSAK_],collision cross section,[8],366.29 ± 0.55 Å²
IQQELQTAKK [_IQQELQTAK(Acetyl (K))K_],collision cross section,[17],374.24 ± 0.38 Å²
same,collision cross section,[18],435.9 ± 0.91 Å²
VSPASSVDSNIPSSQGYKK [_VSPASSVDSNIPSSQGYK(Malonyl)K_],collision cross section,[6],465.75 ± 0.51 Å²
same,collision cross section,[7],526.18 ± 21 Å²
SGNLTEDDKHNNAK [_SGNLTEDDK(Acetyl (K))HNNAK_],collision cross section,[17],418.78 ± 2.4 Å²
same,collision cross section,[18],469.35 ± 2.1 Å²
ALLQAKASGK [_ALLQAK(Trimethyl (K))ASGK_],collision cross section,[20],354.6 ± 1.6 Å²
same,collision cross section,[21],406.65 Å²
SITHSTVGSKGEK [_SITHSTVGSK(Malonyl)GEK_],collision cross section,[6],390.69 ± 2.2 Å²
same,collision cross section,[7],440.36 ± 2.7 Å²
LGTTPSVYGGAGGRGIR [_LGTTPSVYGGAGGR(Methyl (R))GIR_],collision cross section,[14],525.94 ± 0.78 Å²
AYPLADAHLTK [_AY(Phospho (Y))PLADAHLTK_],collision cross section,[4],380.31 ± 0.063 Å²
same,collision cross section,"charge state: 3, modification: Phospho (Y)",465.22 ± 1 Å²
VETTVTSLKTK [_VETTVTSLK(Trimethyl (K))TK_],collision cross section,[20],391.95 ± 0.62 Å²
same,collision cross section,[21],455.28 ± 8.1 Å²
FSYTSQHSDYGQR [_FS(HexNAc (ST))YTSQHSDYGQR_],collision cross section,"charge state: 3, modification: HexNAc (ST)",502.75 ± 0.96 Å²
AAHGRGALAEAAR [_AAHGR(Citrullination (R))GALAEAAR_],collision cross section,[22],378.79 ± 0.65 Å²
same,collision cross section,[23],458.38 ± 1.8 Å²
YIGTGHADTTK [_Y(Phospho (Y))IGTGHADTTK_],collision cross section,[4],372.65 ± 0.75 Å²
LDHLAEKFR [_LDHLAEK(GlyGly (K))FR_],collision cross section,[1],374.05 ± 1.1 Å²
same,collision cross section,[2],449.01 ± 1.6 Å²
LLEQKTQESQK [_LLEQK(Succinyl)TQESQK_],collision cross section,[12],400.32 ± 0.77 Å²
SGFGKFER [_SGFGK(Trimethyl (K))FER_],collision cross section,[20],339.14 Å²
GETASKLQSEISR [_GETASK(Acetyl (K))LQSEISR_],collision cross section,[17],386.09 ± 2 Å²
same,collision cross section,[18],464.45 ± 0.086 Å²
GFCFITYTDEEPVKK [_GFCFITYTDEEPVK(Formyl)K_],collision cross section,[19],450.51 Å²
GRGVGSPEPGPTAPYLGRR [_GR(Citrullination (R))GVGSPEPGPTAPYLGRR_],collision cross section,[23],497.66 ± 1.9 Å²
TLQKQSVVYGGK [_TLQK(Biotin)QSVVYGGK_],collision cross section,"charge state: 2, modification: Biotin",406.33 Å²
DLSTVEALQNLKNLK [_DLSTVEALQNLK(hydroxyisobutyryl)NLK_],collision cross section,[3],486.36 ± 1.3 Å²
same,collision cross section,"charge state: 3, modification: hydroxyisobutyryl",549.84 ± 1.8 Å²
GRGYFEHR [_GR(Citrullination (R))GYFEHR_],collision cross section,[22],339.49 ± 1.6 Å²
same,collision cross section,[23],411.67 ± 1.3 Å²
AIEINPDSAQPYK [_AIEINPDSAQPY(Nitro (Y))K_],collision cross section,[15],401.15 ± 0.18 Å²
LQAAYAGDKADDIQK [_LQAAYAGDK(Malonyl)ADDIQK_],collision cross section,[6],436.07 ± 1.2 Å²
LEEVTGKLQVAR [_LEEVTGK(Acetyl (K))LQVAR_],collision cross section,[17],391.97 ± 0.61 Å²
same,collision cross section,[18],467.89 Å²
GRGYFEHR [_GR(Methyl (R))GYFEHR_],collision cross section,[24],342.05 Å²
same,collision cross section,[14],410.57 ± 5.9 Å²
VFLDCCNYITELR [_VFLDCCNY(Nitro (Y))ITELR_],collision cross section,[15],448.56 ± 0.53 Å²
LQEKVESAQSEQK [_LQEK(Succinyl)VESAQSEQK_],collision cross section,[12],417.9 ± 0.86 Å²
same,collision cross section,"charge state: 3, modification: Succinyl",502.42 ± 0.72 Å²
YADLTEDQLPSCESLK [_Y(Nitro (Y))ADLTEDQLPSCESLK_],collision cross section,[15],442.66 ± 0.55 Å²
TLQKQSVVYGGK [_TLQK(GlyGly (K))QSVVYGGK_],collision cross section,[1],403.57 ± 1.5 Å²
same,collision cross section,[2],459.43 ± 2 Å²
VPTTEKPTVTVNFR [_VPTTEK(Formyl)PTVTVNFR_],collision cross section,[19],425.05 ± 5 Å²
same,collision cross section,[13],502.93 ± 1.3 Å²
PPGFSPFRSSR [_PP(Hydroxyproline)GFSPFRSSR_],collision cross section,[5],367.16 Å²
same,collision cross section,"charge state: 3, modification: Hydroxyproline",458.87 ± 0.35 Å²
GHYTIGK [_GHY(Nitro (Y))TIGK_],collision cross section,[15],323.5 ± 0.72 Å²
VNALKNLQVK [_VNALK(Dimethyl (K))NLQVK_],collision cross section,[10],371.74 ± 0.57 Å²
same,collision cross section,[11],421.1 Å²
AAQASDLEKIHLDEK [_AAQASDLEK(Methyl (K))IHLDEK_],collision cross section,[8],449.24 Å²
same,collision cross section,[9],507.05 ± 2 Å²
LLEEEDSKLK [_LLEEEDSK(Methyl (K))LK_],collision cross section,[8],382.93 ± 0.7 Å²
same,collision cross section,[9],439.97 ± 5.9 Å²
TPNLYIYSKK [_TPNLYIYSK(Dimethyl (K))K_],collision cross section,[10],376.02 ± 0.46 Å²
same,collision cross section,[11],432.06 ± 2.8 Å²
SSFAYKDQNENR [_SSFAYK(GlyGly (K))DQNENR_],collision cross section,[1],412.56 ± 1.4 Å²
same,collision cross section,[2],465.62 ± 2 Å²
LGNDFHTNKR [_LGNDFHTNK(Dimethyl (K))R_],collision cross section,[10],366.02 ± 0.57 Å²
same,collision cross section,[11],412.91 ± 1.1 Å²
DAIHFYNKSLAEHR [_DAIHFYNK(Crotonyl)SLAEHR_],collision cross section,"charge state: 3, modification: Crotonyl",509.89 ± 2 Å²
GDTGLPGPQGIPGGVGSPGR [_GDTGLPGPQGIP(Hydroxyproline)GGVGSPGR_],collision cross section,[5],430.06 ± 1.1 Å²
FRSGNYR [_FR(Methyl (R))SGNYR_],collision cross section,[24],333.09 ± 1 Å²
same,collision cross section,[14],399.51 ± 0.82 Å²
